According to patent US20250326823A1:

Key:
Assay in all cases: cell-based or functional assay
[1] = molecular target: SARS-CoV-2 spike (S) protein, variant B.1.427 (SARS-CoV-2)
[2] = molecular target: SARS-CoV-2 spike (S) protein, variant BA.1 (SARS-CoV-2)
[3] = molecular target: SARS-CoV-2 spike (S) protein, variant P.2 (SARS-CoV-2)
[4] = molecular target: SARS-CoV-2 spike (S) protein, variant B.1.621 (SARS-CoV-2)
[5] = molecular target: SARS-CoV-2 spike (S) protein, variant B.1.351 (SARS-CoV-2)
[6] = molecular target: SARS-CoV-2 spike (S) protein, variant B.1.525 (SARS-CoV-2)
[7] = molecular target: SARS-CoV-2 spike (S) protein, variant BA.2.86 (SARS-CoV-2)
[8] = molecular target: SARS-CoV-2 spike (S) protein, variant KP.3 (SARS-CoV-2) (UniProt P0DTC2)
[9] = molecular target: SARS-CoV-2 spike (S) protein, D614G (SARS-CoV-2) (UniProt P0DTC2)
[10] = molecular target: SARS-CoV-2 spike (S) protein, variant B.1.429 (SARS-CoV-2)
[11] = molecular target: SARS-CoV-2 spike (S) protein, variant JD.1.1 (SARS-CoV-2)
[12] = molecular target: SARS-CoV-2 spike (S) protein, variant KP.3.1.1 (SARS-CoV-2) (UniProt P0DTC2)
[13] = molecular target: SARS-CoV-2 spike (S) protein, variant CH.1.1 (SARS-CoV-2) (UniProt P0DTC2)
[14] = molecular target: SARS-CoV-2 spike (S) protein, variant BA.4/5 (SARS-CoV-2)
[15] = molecular target: SARS-CoV-2 spike (S) protein, variant JN.1 (SARS-CoV-2) (UniProt P0DTC2)
[16] = molecular target: SARS-CoV-2 spike (S) protein, variant CH.1.1 (SARS-CoV-2)
[17] = molecular target: SARS-CoV-2 spike (S) protein, variant XBB (SARS-CoV-2)
[18] = molecular target: SARS-CoV-2 spike (S) protein, variant XBB.1.16.6 (SARS-CoV-2)
[19] = molecular target: SARS-CoV-2 spike (S) protein, variant EG.5.1 (SARS-CoV-2)
[20] = molecular target: SARS-CoV-2 spike (S) protein, variant KP.2 (SARS-CoV-2) (UniProt P0DTC2)
[21] = molecular target: SARS-CoV-2 spike (S) protein, variant EG.5.1 (SARS-CoV-2) (UniProt P0DTC2)
[22] = molecular target: SARS-CoV-2 spike (S) protein, variant B.1.526 (SARS-CoV-2)
[23] = molecular target: SARS-CoV-2 spike (S) protein, variant KP.2.3 (SARS-CoV-2) (UniProt P0DTC2)
[24] = molecular target: SARS-CoV-2 spike protein, variant KP.3 (SARS-CoV-2)
[25] = molecular target: SARS-CoV-2 spike protein, variant KP.2 (SARS-CoV-2)
[26] = molecular target: SARS-CoV-2 spike (S) protein, variant BA.2.86 (SARS-CoV-2) (UniProt P0DTC2)
[27] = molecular target: SARS-CoV-2 spike (S) protein, variant B.1.617.2 (SARS-CoV-2)
[28] = molecular target: SARS-CoV-2 spike (S) protein, variant XBB.2.3.2 (SARS-CoV-2)
[29] = molecular target: SARS-CoV-2 spike (S) protein, variant XBB.1.5 (SARS-CoV-2)
[30] = molecular target: SARS-CoV-2 spike (S) protein, variant XEC (SARS-CoV-2) (UniProt P0DTC2)
[31] = molecular target: SARS-CoV-2 spike (S) protein, variant P.1 (SARS-CoV-2)
[32] = molecular target: SARS-CoV-2 spike (S) protein, variant B.1.617.1 (SARS-CoV-2)
[33] = molecular target: SARS-CoV-2 spike (S) protein, variant LB.1 (SARS-CoV-2) (UniProt P0DTC2)
[34] = molecular target: SARS-CoV-2 spike (S) protein, variant B.1.1.7 (SARS-CoV-2)
[35] = molecular target: SARS-CoV-2 spike (S) protein, variant JN.1 (SARS-CoV-2)

Question: How did the neutralization IC50 [1] turn out when ADG20 (antibody) was run?
Answer: 0.072 nM

Question: What about the neutralization IC80 [1] of the same substance?
Answer: 0.162 nM

Question: And the neutralizing activity IC50 [2]?
Answer: 13.9 nM

Question: And the neutralizing activity IC80 [2]?
Answer: > 67 nM

Question: What about the neutralization IC50 [3] of the same substance?
Answer: 0.034 nM

Question: What about the neutralization IC80 [3] of the same substance?
Answer: 0.121 nM

Question: What about the neutralizing activity IC50 [4] of the same substance?
Answer: 0.026 nM

Question: And the neutralizing activity IC80 [4]?
Answer: 0.131 nM

Question: What about the neutralization IC50 [5] of the same substance?
Answer: 0.011 nM

Question: What about the neutralization IC80 [5] of the same substance?
Answer: 0.05 nM

Question: What about the neutralizing activity IC50 [6] of the same substance?
Answer: 0.019 nM

Question: What about the neutralizing activity IC80 [6] of the same substance?
Answer: 0.101 nM

Question: What about the pseudovirus neutralization IC50 [7] of the same substance?
Answer: > 67 nM

Question: And the pseudovirus neutralization IC80 [7]?
Answer: > 67 nM

Question: And the neutralizing activity IC50 (µg/ml (caption; values match nM)) [8]?
Answer: > 67

Question: And the neutralizing activity IC80 (µg/ml (caption; values match nM)) [8]?
Answer: > 67

Question: And the neutralization IC50 [9]?
Answer: 0.019 nM

Question: And the neutralization IC80 [9]?
Answer: 0.065 nM

Question: What about the neutralization IC50 [10] of the same substance?
Answer: 0.014 nM

Question: And the neutralization IC80 [10]?
Answer: 0.061 nM

Question: And the pseudovirus neutralization IC50 [11]?
Answer: > 67 nM

Question: And the pseudovirus neutralization IC80 [11]?
Answer: > 67 nM

Question: And the neutralizing activity IC50 (µg/ml (caption; values match nM)) [12]?
Answer: > 67

Question: What about the neutralizing activity IC80 (µg/ml (caption; values match nM)) [12] of the same substance?
Answer: > 67

Question: And the neutralizing activity IC50 (µg/ml (caption; values match nM)) [13]?
Answer: 13.7

Question: And the neutralizing activity IC80 (µg/ml (caption; values match nM)) [13]?
Answer: > 67

Question: What about the neutralizing activity IC50 [14] of the same substance?
Answer: > 67 nM

Question: What about the neutralizing activity IC80 [14] of the same substance?
Answer: > 67 nM

Question: What about the neutralizing activity IC50 (µg/ml (caption; values match nM)) [15] of the same substance?
Answer: > 67

Question: What about the neutralizing activity IC80 (µg/ml (caption; values match nM)) [15] of the same substance?
Answer: > 67

Question: And the neutralizing activity IC50 [16]?
Answer: 13.7 nM

Question: And the neutralizing activity IC80 [16]?
Answer: > 67 nM

Question: And the neutralizing activity IC50 [17]?
Answer: 10.6 nM

Question: And the neutralizing activity IC80 [17]?
Answer: > 67 nM

Question: What about the neutralizing activity IC50 [18] of the same substance?
Answer: > 67 nM

Question: What about the neutralizing activity IC80 [18] of the same substance?
Answer: > 67 nM

Question: And the pseudovirus neutralization IC50 [19]?
Answer: > 67 nM

Question: What about the pseudovirus neutralization IC80 [19] of the same substance?
Answer: > 67 nM

Question: And the neutralizing activity IC50 (µg/ml (caption; values match nM)) [20]?
Answer: > 67

Question: And the neutralizing activity IC80 (µg/ml (caption; values match nM)) [20]?
Answer: > 67

Question: What about the neutralizing activity IC50 (µg/ml (caption; values match nM)) [21] of the same substance?
Answer: > 67

Question: And the neutralizing activity IC80 (µg/ml (caption; values match nM)) [21]?
Answer: > 67

Question: And the neutralizing activity IC50 [22]?
Answer: 0.019 nM

Question: And the neutralizing activity IC80 [22]?
Answer: 0.081 nM

Question: What about the neutralizing activity IC50 (µg/ml (caption; values match nM)) [23] of the same substance?
Answer: > 67

Question: And the neutralizing activity IC80 (µg/ml (caption; values match nM)) [23]?
Answer: > 67

Question: What about the IC50 (nM), pseudovirus neutralization [24] of the same substance?
Answer: > 67 nM

Question: What about the IC50 (nM), pseudovirus neutralization [25] of the same substance?
Answer: > 67 nM

Question: And the neutralizing activity IC50 (µg/ml (caption; values match nM)) [26]?
Answer: > 67

Question: And the neutralizing activity IC80 (µg/ml (caption; values match nM)) [26]?
Answer: > 67

Question: What about the neutralizing activity IC50 [27] of the same substance?
Answer: 0.11 nM

Question: And the neutralizing activity IC80 [27]?
Answer: 0.118 nM

Question: And the neutralizing activity IC50 [28]?
Answer: > 67 nM

Question: What about the neutralizing activity IC80 [28] of the same substance?
Answer: > 67 nM

Question: What about the neutralizing activity IC50 [29] of the same substance?
Answer: > 67 nM

Question: What about the neutralizing activity IC80 [29] of the same substance?
Answer: > 67 nM

Question: And the neutralizing activity IC50 (µg/ml (caption; values match nM)) [30]?
Answer: > 67

Question: And the neutralizing activity IC80 (µg/ml (caption; values match nM)) [30]?
Answer: > 67

Question: And the neutralizing activity IC50 [31]?
Answer: 0.021 nM

Question: What about the neutralizing activity IC80 [31] of the same substance?
Answer: 0.117 nM

Question: And the neutralization IC50 [32]?
Answer: 0.015 nM

Question: And the neutralization IC80 [32]?
Answer: 0.071 nM

Question: And the neutralizing activity IC50 (µg/ml (caption; values match nM)) [33]?
Answer: > 67

Question: What about the neutralizing activity IC80 (µg/ml (caption; values match nM)) [33] of the same substance?
Answer: > 67

Question: And the neutralization IC50 [34]?
Answer: 0.106 nM

Question: What about the neutralization IC80 [34] of the same substance?
Answer: 0.424 nM

Question: What about the pseudovirus neutralization IC50 [35] of the same substance?
Answer: > 67 nM

Question: And the pseudovirus neutralization IC80 [35]?
Answer: > 67 nM
